Data: paper PMC6255862, “A quaternary tetramer assembly inhibits the deubiquitinating activity of USP25” (Nature Communications, 2018)
Substitutions are numbered along the chain they refer to. Several values for one entry are separate records, joined by “and”; a condition that tells them apart may be missing. Equal values may be shown once.

Experiments:
[1] = molecular target: USP25CD (human USP25 with the NTD and the CTD deleted) (human); experiment: SEC; analytical gel filtration of all truncation constructs run in parallel under identical conditions, Superdex 16 column, 100 mM NaCl, 20 mM Tris-HCl pH 8.0, 1 mM β-mercaptoethanol; oligomer from elution time against expected molecular weight
[2] = molecular target: USP25 Y454E (human) (UniProt Q9UHP3); experiment: SEC; oligomer state of USP25 point mutants (Supplementary Figures 6 and 11, not shown); by the methods all USP25 constructs were loaded on a Superdex 16 column in 100 mM NaCl, 20 mM Tris-HCl pH 8.0, 1 mM β-mercaptoethanol and run on native PAGE
[3] = molecular target: USP25CD ΔIL (USP25 catalytic domain construct with the IL-loop, Cys465 to Pro537, replaced by Gly-Ser-Gly) (human); experiment: SEC; analytical gel filtration of all truncation constructs run in parallel under identical conditions, Superdex 16 column, 100 mM NaCl, 20 mM Tris-HCl pH 8.0, 1 mM β-mercaptoethanol; oligomer from elution time against expected molecular weight
[4] = molecular target: USP25 Y454F (human) (UniProt Q9UHP3); experiment: SEC; oligomer state of USP25 point mutants (Supplementary Figures 6 and 11, not shown); by the methods all USP25 constructs were loaded on a Superdex 16 column in 100 mM NaCl, 20 mM Tris-HCl pH 8.0, 1 mM β-mercaptoethanol and run on native PAGE
[5] = molecular target: the molecule itself; experiment: SEC; analytical gel filtration of all truncation constructs run in parallel under identical conditions, Superdex 16 column, 100 mM NaCl, 20 mM Tris-HCl pH 8.0, 1 mM β-mercaptoethanol; oligomer from elution time against expected molecular weight
[6] = molecular target: T1, USP25FL (full-length human USP25) (human), Q9UHP3; experiment: as above; conditions: remark: other sources report otherwise
T1 chain: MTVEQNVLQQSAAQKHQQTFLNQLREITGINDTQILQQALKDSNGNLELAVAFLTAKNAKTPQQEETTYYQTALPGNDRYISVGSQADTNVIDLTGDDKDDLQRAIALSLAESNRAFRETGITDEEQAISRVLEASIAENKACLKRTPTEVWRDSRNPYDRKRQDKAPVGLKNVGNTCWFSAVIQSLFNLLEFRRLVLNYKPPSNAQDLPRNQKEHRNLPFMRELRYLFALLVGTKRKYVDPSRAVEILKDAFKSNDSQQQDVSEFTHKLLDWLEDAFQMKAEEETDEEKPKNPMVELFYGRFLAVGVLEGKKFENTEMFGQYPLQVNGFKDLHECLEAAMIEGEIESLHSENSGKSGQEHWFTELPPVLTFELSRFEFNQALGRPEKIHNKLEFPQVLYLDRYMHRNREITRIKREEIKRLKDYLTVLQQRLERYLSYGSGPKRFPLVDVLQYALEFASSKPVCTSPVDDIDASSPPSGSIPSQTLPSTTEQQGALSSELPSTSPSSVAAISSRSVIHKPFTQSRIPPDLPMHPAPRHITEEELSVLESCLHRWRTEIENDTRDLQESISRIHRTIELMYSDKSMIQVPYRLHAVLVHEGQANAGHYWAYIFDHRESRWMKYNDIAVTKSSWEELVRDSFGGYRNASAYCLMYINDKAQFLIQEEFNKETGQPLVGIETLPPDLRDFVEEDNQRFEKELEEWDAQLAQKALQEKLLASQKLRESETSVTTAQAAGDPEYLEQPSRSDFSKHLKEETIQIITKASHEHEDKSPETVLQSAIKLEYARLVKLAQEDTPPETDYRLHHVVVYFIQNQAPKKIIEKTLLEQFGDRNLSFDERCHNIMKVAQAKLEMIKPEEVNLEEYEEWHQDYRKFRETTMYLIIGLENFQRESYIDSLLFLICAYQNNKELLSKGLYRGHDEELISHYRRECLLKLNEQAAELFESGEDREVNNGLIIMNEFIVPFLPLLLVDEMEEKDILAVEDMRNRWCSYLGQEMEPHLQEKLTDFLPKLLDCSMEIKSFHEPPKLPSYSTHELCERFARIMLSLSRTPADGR

[7] = molecular target: the molecule itself; experiment: SEC; purification of USP25NCD: preparative Superdex 200 gel filtration, anion exchange of the two peak fractions, analytical gel filtration (Superdex 16) of the dimer and tetramer fractions; 100 mM NaCl, 20 mM Tris-HCl pH 8.0, 1 mM β-mercaptoethanol
[8] = molecular target: the molecule itself; experiment: SEC; oligomer state of USP25 point mutants (Supplementary Figures 6 and 11, not shown); by the methods all USP25 constructs were loaded on a Superdex 16 column in 100 mM NaCl, 20 mM Tris-HCl pH 8.0, 1 mM β-mercaptoethanol and run on native PAGE
[9] = molecular target: the molecule itself; experiment: crystal structure; lysine-methylated USP25NCD tetramer fraction; space group I422, one molecule per asymmetric unit, tetramer from the crystal lattice; 3.28 Å

USP25CD (human USP25 with the NTD and the CTD deleted) (domain or fragment)
stoichiometry N [1]: 4

USP25 Y454E (from UniProt Q9UHP3 1-1055) (enzyme)
stoichiometry N [2]: 2

USP25CD ΔIL (USP25 catalytic domain construct with the IL-loop, Cys465 to Pro537, replaced by Gly-Ser-Gly) (domain or fragment)
stoichiometry N [3]: 2

USP25 Y454F (from UniProt Q9UHP3 1-1055) (enzyme)
stoichiometry N [4]: 4

B1: USP25FL ΔIL (full-length USP25 with the IL-loop, Cys465 to Pro537, replaced by Gly-Ser-Gly) (enzyme, human)
chain: MTVEQNVLQQSAAQKHQQTFLNQLREITGINDTQILQQALKDSNGNLELAVAFLTAKNAKTPQQEETTYYQTALPGNDRYISVGSQADTNVIDLTGDDKDDLQRAIALSLAESNRAFRETGITDEEQAISRVLEASIAENKACLKRTPTEVWRDSRNPYDRKRQDKAPVGLKNVGNTCWFSAVIQSLFNLLEFRRLVLNYKPPSNAQDLPRNQKEHRNLPFMRELRYLFALLVGTKRKYVDPSRAVEILKDAFKSNDSQQQDVSEFTHKLLDWLEDAFQMKAEEETDEEKPKNPMVELFYGRFLAVGVLEGKKFENTEMFGQYPLQVNGFKDLHECLEAAMIEGEIESLHSENSGKSGQEHWFTELPPVLTFELSRFEFNQALGRPEKIHNKLEFPQVLYLDRYMHRNREITRIKREEIKRLKDYLTVLQQRLERYLSYGSGPKRFPLVDVLQYALEFASSKPVGSGRHITEEELSVLESCLHRWRTEIENDTRDLQESISRIHRTIELMYSDKSMIQVPYRLHAVLVHEGQANAGHYWAYIFDHRESRWMKYNDIAVTKSSWEELVRDSFGGYRNASAYCLMYINDKAQFLIQEEFNKETGQPLVGIETLPPDLRDFVEEDNQRFEKELEEWDAQLAQKALQEKLLASQKLRESETSVTTAQAAGDPEYLEQPSRSDFSKHLKEETIQIITKASHEHEDKSPETVLQSAIKLEYARLVKLAQEDTPPETDYRLHHVVVYFIQNQAPKKIIEKTLLEQFGDRNLSFDERCHNIMKVAQAKLEMIKPEEVNLEEYEEWHQDYRKFRETTMYLIIGLENFQRESYIDSLLFLICAYQNNKELLSKGLYRGHDEELISHYRRECLLKLNEQAAELFESGEDREVNNGLIIMNEFIVPFLPLLLVDEMEEKDILAVEDMRNRWCSYLGQEMEPHLQEKLTDFLPKLLDCSMEIKSFHEPPKLPSYSTHELCERFARIMLSLSRTPADGR
notes: USP25, human, from Met1 to the residue before the deletion (deletion from Cys465 to Pro537); three-amino-acid linker Gly-Ser-Gly in place of the deleted stretch; USP25, human, from the residue after the deletion to Arg1055; also called ΔIL USP25FL; not shown: Smt3, N-terminal, cleaved
stoichiometry N [5]: 2

B2: USP25FL (full-length human USP25), Q9UHP3 1-1055 (enzyme)
chain: T1 chain
stoichiometry N [6]: 4

B3: USP25NCD ΔIL (USP25 18-714 with the IL-loop, Cys465 to Pro537, replaced by Gly-Ser-Gly) (enzyme, human)
chain: QTFLNQLREITGINDTQILQQALKDSNGNLELAVAFLTAKNAKTPQQEETTYYQTALPGNDRYISVGSQADTNVIDLTGDDKDDLQRAIALSLAESNRAFRETGITDEEQAISRVLEASIAENKACLKRTPTEVWRDSRNPYDRKRQDKAPVGLKNVGNTCWFSAVIQSLFNLLEFRRLVLNYKPPSNAQDLPRNQKEHRNLPFMRELRYLFALLVGTKRKYVDPSRAVEILKDAFKSNDSQQQDVSEFTHKLLDWLEDAFQMKAEEETDEEKPKNPMVELFYGRFLAVGVLEGKKFENTEMFGQYPLQVNGFKDLHECLEAAMIEGEIESLHSENSGKSGQEHWFTELPPVLTFELSRFEFNQALGRPEKIHNKLEFPQVLYLDRYMHRNREITRIKREEIKRLKDYLTVLQQRLERYLSYGSGPKRFPLVDVLQYALEFASSKPVGSGRHITEEELSVLESCLHRWRTEIENDTRDLQESISRIHRTIELMYSDKSMIQVPYRLHAVLVHEGQANAGHYWAYIFDHRESRWMKYNDIAVTKSSWEELVRDSFGGYRNASAYCLMYINDKAQFLIQEEFNKETGQPLVGIETLPPDLRDFVEEDNQRFEKELEEWDAQLAQKALQE
notes: USP25, human, from Gln18 to the residue before the deletion (deletion from Cys465 to Pro537); three-amino-acid linker Gly-Ser-Gly in place of the deleted stretch; USP25, human, from the residue after the deletion to Glu714; also called ΔIL USP25NCD; USP25NCD ∆IL; not shown: Smt3, N-terminal, cleaved
stoichiometry N [5]: 2

B4: USP25NCD (human USP25, N-terminal domain and USP-like catalytic domain, Gln18 to Glu714) (enzyme, UniProt Q9UHP3 18-714, looked up)
chain: QTFLNQLREITGINDTQILQQALKDSNGNLELAVAFLTAKNAKTPQQEETTYYQTALPGNDRYISVGSQADTNVIDLTGDDKDDLQRAIALSLAESNRAFRETGITDEEQAISRVLEASIAENKACLKRTPTEVWRDSRNPYDRKRQDKAPVGLKNVGNTCWFSAVIQSLFNLLEFRRLVLNYKPPSNAQDLPRNQKEHRNLPFMRELRYLFALLVGTKRKYVDPSRAVEILKDAFKSNDSQQQDVSEFTHKLLDWLEDAFQMKAEEETDEEKPKNPMVELFYGRFLAVGVLEGKKFENTEMFGQYPLQVNGFKDLHECLEAAMIEGEIESLHSENSGKSGQEHWFTELPPVLTFELSRFEFNQALGRPEKIHNKLEFPQVLYLDRYMHRNREITRIKREEIKRLKDYLTVLQQRLERYLSYGSGPKRFPLVDVLQYALEFASSKPVCTSPVDDIDASSPPSGSIPSQTLPSTTEQQGALSSELPSTSPSSVAAISSRSVIHKPFTQSRIPPDLPMHPAPRHITEEELSVLESCLHRWRTEIENDTRDLQESISRIHRTIELMYSDKSMIQVPYRLHAVLVHEGQANAGHYWAYIFDHRESRWMKYNDIAVTKSSWEELVRDSFGGYRNASAYCLMYINDKAQFLIQEEFNKETGQPLVGIETLPPDLRDFVEEDNQRFEKELEEWDAQLAQKALQE
notes: USP25, human, residues 18-714 of the 1055-residue protein (Met1 to Arg1055); A His tag ahead of Smt3 is surmised from the Ni2+ purification; also called USP25NCD tetramer; USP25NCD dimer; not shown: Smt3, N-terminal, cleaved
stoichiometry N [7]: 2 and 4

B5: USP25NCD L271W (enzyme, human, UniProt Q9UHP3 18-714, looked up)
chain: B4 chain with L254W
notes: The methods speak of 'USP25NCD point mutants'; not shown: Smt3, N-terminal, cleaved
stoichiometry N [8]: 4

B6: USP25NCD, lysine-methylated (tetramer fraction used for crystallization) (enzyme, human, UniProt Q9UHP3 18-714, looked up)
chain: B4 chain
modifications: lysines methylated (borane-dimethylamine complex and formaldehyde)
notes: USP25, human, residues 18-714 of the 1055-residue protein; Model holds Tyr159 to Ala708; NTD (18-158) and several loops (205-214, 256-260, 346-354, 471-515, 671-677) are not seen; also called USP25NCD tetramer; lysine methylated USP25NCD; not shown: Smt3, N-terminal, cleaved
stoichiometry N [9]: 4
